According to patent US20230235072A1 (DENALI THERAPEUTICS, published 2023):
Residue numbers refer to the chain shown, from its start. Read-outs that look alike come from different tables or passages of the source.

Key:
[1] = target: T1, CH3C.35 Fc-Fab fusion (bivalent) (Homo sapiens (Human), UniProt P0DOX5 230-449 = IgG part); experiment: phage ELISA: phage-displayed human TfR apical domain, dilution series on plate-coated CH3C.35; OD650
T1 construct: bivalent for TfR; also called CH3C.35.bi; CHC3.35
T1 Fc: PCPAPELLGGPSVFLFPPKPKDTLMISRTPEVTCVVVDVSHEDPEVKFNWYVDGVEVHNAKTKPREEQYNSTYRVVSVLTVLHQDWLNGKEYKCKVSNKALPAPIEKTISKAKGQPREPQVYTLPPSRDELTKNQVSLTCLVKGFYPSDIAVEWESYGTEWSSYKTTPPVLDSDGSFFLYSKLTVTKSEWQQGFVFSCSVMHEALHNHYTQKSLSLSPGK
Description: (§1) The plates were subsequently washed and anti-M13-HRP was added, and after additional washing the plates were developed with TMB substrate and quenched with 2N […].

CH3C.18 Fc-Fab fusion = target: T2, CH3C.18 Fc-Fab fusion (Homo sapiens (Human), UniProt P0DOX5 230-449 = IgG part); experiment: phage ELISA: phage-displayed human TfR apical domain, dilution series on plate-coated CH3C.18; OD650
T2 construct: bivalent for TfR; also called CH3C.18.1.18
T2 Fc: T1 Fc with Y157L, T159H, E160V, S162A, S163V, T186P, E189T, F194W
Description: as §1

[2] = target: T1, CH3C.35 Fc-Fab fusion (bivalent); experiment: phage ELISA: phage-displayed TfR apical domain, dilution series on plate-coated CH3C.35; OD650
Description: as §1

[3] = target: T3, human transferrin receptor (TfR) ectodomain (ECD) (human, UniProt P02786 121-760, biotinylated where captured on streptavidin); experiment: phage ELISA: phage at about its EC50 on plate-coated human TfR with soluble holo-Tf added at 0.007-5 uM; OD650
T3 construct: also called human TfR; huTfR

[4] = target: T4, cynomolgus transferrin receptor (TfR) ectodomain (ECD) (cynomolgus, UniProt Q5RDH6 121-760 (Pongo abelii entry), biotinylated where captured on streptavidin); experiment: phage ELISA: Fc variant on phage, titrated by OD268 of the phage solution on plate-coated cyno TfR; OD650
T4 construct: also called cyno TfR; cynoTfR
T4 chain: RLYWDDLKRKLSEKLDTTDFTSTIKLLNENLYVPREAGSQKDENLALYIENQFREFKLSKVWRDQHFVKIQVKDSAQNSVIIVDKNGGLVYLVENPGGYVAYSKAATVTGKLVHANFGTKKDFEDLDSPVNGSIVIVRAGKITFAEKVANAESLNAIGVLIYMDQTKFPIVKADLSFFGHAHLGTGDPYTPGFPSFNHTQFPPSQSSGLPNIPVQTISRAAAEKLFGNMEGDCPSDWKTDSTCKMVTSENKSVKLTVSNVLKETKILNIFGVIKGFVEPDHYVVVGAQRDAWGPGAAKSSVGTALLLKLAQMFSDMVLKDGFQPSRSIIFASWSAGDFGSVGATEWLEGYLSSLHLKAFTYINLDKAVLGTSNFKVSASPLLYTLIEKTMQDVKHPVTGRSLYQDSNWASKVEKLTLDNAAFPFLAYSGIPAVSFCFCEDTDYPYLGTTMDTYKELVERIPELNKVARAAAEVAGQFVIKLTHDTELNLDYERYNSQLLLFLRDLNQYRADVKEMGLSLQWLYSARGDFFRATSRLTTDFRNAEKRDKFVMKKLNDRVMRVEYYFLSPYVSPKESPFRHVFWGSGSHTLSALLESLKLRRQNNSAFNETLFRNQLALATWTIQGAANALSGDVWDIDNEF

[5] = target: T4, cynomolgus transferrin receptor (TfR) …; experiment: as above
[6] = target: T3, human transferrin receptor (TfR) …; experiment: phage ELISA: Fc variant on phage, titrated by OD268 of the phage solution on plate-coated human TfR; OD650
[7] = target: T4, cynomolgus transferrin receptor (TfR) …; experiment: phage ELISA: Fc variant on phage, titrated by OD268 of the phage solution on plate-coated cyno TfR; OD650
[8] = target: T4, cynomolgus transferrin receptor (TfR) …; experiment: as above
[9] = target: T3, human transferrin receptor (TfR) …; experiment: competition phage ELISA: phage-displayed clone at about its EC50 on plate-coated human TfR, soluble human TfR varied as competitor; OD650

B1: loop-truncated human TfR apical domain displayed on phage (receptor)
chain: SSGLPNIPVQTISRAAAEKLFGNMEGDCPSDWKTDSTCRMVTSESKNVKLTVSNDSAQNSVIIVDKNGRLVYLVENPGGYVAYSKAATVTGKLVHANFGTKKDFEDLYTPVNGSIVIVRAGKITFAEKVANAESLNAIGVLIYMDQTKFPIVNAELSGP
notes: fused to phage coat, Myc-tagged; also called human TfR apical domain (phage)
binding result [1]: binds | binding result (CH3C.18 Fc-Fab fusion): binds

B2: loop-truncated cynomolgus TfR apical domain displayed on phage (receptor)
chain: B1 chain with R39K, S45N, N47S, R69G, Y108D, T109S, N153K, E155D
notes: fused to phage coat, Myc-tagged; also called cyno apical domain (phage)
binding result [2]: binds

B3: Clone CH2A2.4 (designed binder)
chain: PCPAPELLGGPSVFLFPPKPKDTLMISRTPEVTCVVVDVSHEDPEVSFEWYVDGVPVRWEWQWPREEQYNSTYRVVSVLTVLHQDWLNGKEYKCKVSNKALPAPIEKTISKAKGQPREPQVYTLPPSRDELTKNQVSLTCLVKGFYPSDIAVEWESNGQPENNYKTTPPVLDSDGSFFLYSKLTVDKSRWQQGNVFSCSVMHEALHNHYTQKSLSLSPGK
binding result [3]: binds | binding result [4]: binds

B4: Clone CH2A2.16 (designed binder)
chain: B3 chain with S47W, P56F, R58G, W59V, E60A, W61Y, Q62D, W63V
binding result [5]: no binding (tested: OD268 1 (phage solution)) | binding result [3]: binds

B5: Clone CH2A2.5 (designed binder)
chain: B3 chain with S47A, E49T, W63N
binding result [6]: binds | binding result [7]: binds

B6: Clone CH2A2.1 (designed binder)
chain: B3 chain with S47E, E49I, P56D, W59Y, W63L
binding result [8]: binds | binding result [9]: binds
